According to patent US20060275211A1 (AGENSYS, published 2006):

B1: H16-7.8 (antibody, V domains shown)
VH: QVQLQESGPGLVKPSQTLSLTCTVSGGSISSGGYYWSWIRQHPGKGLEWIGIIYYSGSTYYNPSLKSRVTISVDTSKNQFSLKLNSVTAADTAVFYCARVAIVTTIPGGMDVWGQGTTVTVSS
VL: EIVLTQSPDFQSVTPKEKVTITCRASQSIGISLHWYQQKPDQSPKLLIKYASQSFSGVPSRFSGSGSGTDFTLTINSLEAEDAATYYCHQSRSFPWTFGQGTKVEIKR
notes: Entries include the leader and a portion of the constant region
B2: H16-7.200 (antibody, V domains shown)
VH: QVQLQESGPGLVKPSQTLSLTCTVSGGSITSGDYYWSWIRQHPGKGLEWFGFIYYSGSAYYNPSLKSRITISVDTSKNQFSLKLSSVTAADTAVYYCARERNYGGNSFDYWGQGTLVTVSS
VL: not shown
notes: Entries include the leader (VL: part of it) and a portion of the constant region; also called HA16-7.200

Columns and labels:
[1] = molecular target: T1, mouse 161P2F10B expressed on 293T cells (mouse, UniProt Q6DYE8 1-874); assay: FACS: 293T-mouse 161P2F10B cells (open line) vs 293T-neo cells (filled), MAb 2 µg/mL, anti-hIgG-PE
T1 construct: whole, on cells; also called murine 161P2F10B; mouse 161P2F10B ortholog
Protocol: Cross reactivity of human MAbs on mouse 161P2F10B. […] Antibodies bound on the cells were detected using anti-hIgG-PE and analyzed on FACS. Data were analyzed using CellQuest Pro software. The solid purple line is data from negative control cells. The green line is from 161P2F10B-positive cells.

[2] = molecular target: T2, Tag5-161P2F10B, purified recombinant extracellular domain (ECD) of 161P2F10B (amino acids 46-875) (human, UniProt O14638 46-875); assay: SPR, MAb captured on CM5 chip, recombinant 161P2F10B 1-100 nM injected
T2 construct: also called recombinant 161P2F10B; Tag5-161P2F10B-ECD
Description: Briefly, each purified human MAb is captured onto a CM5 sensor chip surface. On average approximately 150 RUs of each MAb is captured in every cycle.

T1 sequence (Q6DYE8 whole entry): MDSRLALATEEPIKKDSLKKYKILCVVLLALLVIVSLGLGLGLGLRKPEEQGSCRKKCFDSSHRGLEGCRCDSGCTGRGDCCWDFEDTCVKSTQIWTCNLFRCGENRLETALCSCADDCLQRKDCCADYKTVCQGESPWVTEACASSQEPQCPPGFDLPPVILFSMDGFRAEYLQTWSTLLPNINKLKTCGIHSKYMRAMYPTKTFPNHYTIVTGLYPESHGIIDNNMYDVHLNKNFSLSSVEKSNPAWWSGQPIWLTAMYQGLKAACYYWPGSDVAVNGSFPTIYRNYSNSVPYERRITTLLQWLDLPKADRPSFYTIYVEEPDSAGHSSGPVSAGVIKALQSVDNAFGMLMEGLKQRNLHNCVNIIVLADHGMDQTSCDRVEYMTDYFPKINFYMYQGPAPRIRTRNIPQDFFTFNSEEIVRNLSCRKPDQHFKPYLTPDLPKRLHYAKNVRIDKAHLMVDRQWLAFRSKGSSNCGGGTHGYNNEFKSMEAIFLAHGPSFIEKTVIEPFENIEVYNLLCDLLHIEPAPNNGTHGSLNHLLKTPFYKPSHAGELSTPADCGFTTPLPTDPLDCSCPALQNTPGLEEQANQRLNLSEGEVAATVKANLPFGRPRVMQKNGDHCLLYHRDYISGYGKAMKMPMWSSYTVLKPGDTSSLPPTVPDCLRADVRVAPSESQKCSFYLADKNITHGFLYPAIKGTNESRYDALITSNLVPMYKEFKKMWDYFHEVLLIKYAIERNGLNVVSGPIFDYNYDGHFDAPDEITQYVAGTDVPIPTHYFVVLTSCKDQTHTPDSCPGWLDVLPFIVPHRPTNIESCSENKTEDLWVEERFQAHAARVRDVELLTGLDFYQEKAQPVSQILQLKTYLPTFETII

Row | Binder | binding result [1] | Kd [2] [nM]
1 | B1 | binds | –
2 | B2 | – | 9
